For one molecule, Kd results are on record in PMC2944808 (2010).

For the test, the target named is T1, CHRD_VWC2 (Mus musculus (Mouse), UniProt Q9Z0E2).
T1 chain: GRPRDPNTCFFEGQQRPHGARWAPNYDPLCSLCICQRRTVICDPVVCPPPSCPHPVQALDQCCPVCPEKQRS
Nature of the test: SPR, chordin VWC immobilised. A general note: In SPR one partner is held on a chip, and binding of the other changes the refractive index at the surface.

B1: CV2 (protein)
chain: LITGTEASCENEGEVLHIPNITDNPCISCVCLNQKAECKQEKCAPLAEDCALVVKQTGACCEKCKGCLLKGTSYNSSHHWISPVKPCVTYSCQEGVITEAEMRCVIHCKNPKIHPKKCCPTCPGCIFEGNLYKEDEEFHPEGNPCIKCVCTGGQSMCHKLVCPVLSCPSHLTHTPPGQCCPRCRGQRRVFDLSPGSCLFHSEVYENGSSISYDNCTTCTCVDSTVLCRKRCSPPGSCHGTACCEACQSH
The term Kd denotes the free concentration of one partner at which half of the binding sites on the other are occupied at equilibrium, for simple one-to-one binding. Low readings indicate higher affinity, high ones lower affinity. In the case of B1, the Kd was found to be 145 nM.
